In US20230079439A1, “Compositions and Methods for Enhancing Beta Cell Maturation, Health and Function” (THE REGENTS OF THE UNIVERSITY OF CALIFORNIA, priority 2016, published 2023):

Target: transcellular partners
Assay: cell-based or functional assay

half-maximal inhibition of insulin secretion by rat islets (20 mM glucose): 9 nM
Substance: Soluble neuroligin-2 extracellular domain (receptor)
